Data: patent US20180057581A1 (MorphoSys, published 2018)

How the values were obtained:
[1] = target: T1, Recombinant cynomolgus monkey sgM-CSF (cynomolgus (Macaca fascicularis), UniProt P09603 33-255 (human entry), limits assumed); assay: Receptor binding assay, inhibition of cynomolgus M-CSF binding to M-CSF receptor (competitor CSF1-R-Fc); Table 12 summary
T1 construct: used also where only 'cynomolgus M-CSF' is printed (ELISA result, SET); also called cynomolgus sgM-CSF; cyno sgM-CSF
T1 chain: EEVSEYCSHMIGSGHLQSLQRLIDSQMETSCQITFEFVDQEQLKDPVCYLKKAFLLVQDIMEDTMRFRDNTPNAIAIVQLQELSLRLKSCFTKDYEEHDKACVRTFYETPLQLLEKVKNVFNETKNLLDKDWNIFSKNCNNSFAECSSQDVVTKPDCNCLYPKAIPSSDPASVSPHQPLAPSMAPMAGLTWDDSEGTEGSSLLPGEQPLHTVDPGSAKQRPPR
Protocol: Complexes were then transferred to 384 well MSD plates coated with 2 μg/ml of the corresponding receptor. Plates were then washed and incubated with the streptavidin/ECL conjugate for 2 h with shaking at room temperature. 35 μl MSD read buffer T with surfactant was then added per well and subsequently measured using MSD Sector Imager 6000.

[2] = target: T2, Recombinant human sgM-CSF (human, UniProt P09603 33-255); assay: Receptor binding assay, inhibition of human M-CSF binding to M-CSF receptor (competitor CSF1-R-Fc); Table 12 summary
T2 construct: also called human secreted glycosylated M-CSF; Human M-CSF
T2 sequence: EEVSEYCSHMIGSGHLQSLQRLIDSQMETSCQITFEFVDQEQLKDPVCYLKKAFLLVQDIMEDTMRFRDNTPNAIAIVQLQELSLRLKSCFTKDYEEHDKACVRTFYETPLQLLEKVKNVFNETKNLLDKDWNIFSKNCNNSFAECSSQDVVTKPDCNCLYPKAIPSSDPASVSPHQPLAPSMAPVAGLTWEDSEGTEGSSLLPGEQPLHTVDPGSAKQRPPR

[3] = target: T2, Recombinant human sgM-CSF; assay: Table 12 summary, criterion Binding, Human M-CSF; assay and antibody format not named there
Protocol: The monovalent affinity of the antibodies of the present disclosure was determined by soluble equilibrium titration (Haenel et al. (2005) Anal Biochem 339, 182-4).

human M-CSF = target: T3, human M-CSF (human, UniProt P09603 33-255, limits assumed); assay: ELISA
T3 construct: also called M-CSF (human); CSF-1
T3 sequence: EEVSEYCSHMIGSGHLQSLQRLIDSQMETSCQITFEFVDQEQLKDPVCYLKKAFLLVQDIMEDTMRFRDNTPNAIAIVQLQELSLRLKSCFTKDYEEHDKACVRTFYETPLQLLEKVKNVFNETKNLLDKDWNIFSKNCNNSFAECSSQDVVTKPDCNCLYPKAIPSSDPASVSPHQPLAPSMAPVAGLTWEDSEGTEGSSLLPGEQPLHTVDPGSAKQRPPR
Protocol: (§1) BSA was used as a negative control substrate.
(§2) After blocking of plates with 5% skim milk powder in PBS, Fab-containing E. coli lysates, IgG-containing cell culture supernatants or purified IgG or Fab proteins were added. Binding of Fabs or IgGs was detected by F(ab)₂ specific goat anti-human IgG conjugated to alkaline phosphatase (Dianova Cat# 109-055-097; diluted 1:5000) using Attophos fluorescence substrate (Roche, #11681982001). Fluorescence emission at 535 nm was recorded with excitation at 430 nm.

[4] = target: T1, Recombinant cynomolgus monkey sgM-CSF; assay: ELISA
Protocol: as §1, §2

[5] = target: Cell surface receptor 3 (human) (human); assay: MSD specificity profiling, coated protein, Camille at 100 nM
Protocol: (§3) For this specificity profiling test the different proteins and controls were coated on two 384-well MSD plates with a concentration of 1 μg/ml at 4° C. over night. Plates were blocked with BSA and washed three times with PBS with 0.05% (v/v) Tween 20. Antibody samples were diluted to 100 nM and 10 nM in assay buffer (PBS with 0.5% (w/v) BSA, 0.05% (v/v) Tween 20). […] Samples and controls were incubated for three hours at room temperature. The plates were washed three times and 30 μl detection antibody (ECL-labeled anti-human Fab) were added per well and incubated for 1 h. After washing, MSD Read Buffer T with surfactant was added and electrochemiluminescence signals were detected using a Sector Imager 6000 (Meso Scale Discovery, Gaithersburg, Md., USA).

Ovalbumin (chicken) = target: T4, Ovalbumin (chicken) (chicken, UniProt P01012 2-386); assay: as above
T4 sequence (looked up): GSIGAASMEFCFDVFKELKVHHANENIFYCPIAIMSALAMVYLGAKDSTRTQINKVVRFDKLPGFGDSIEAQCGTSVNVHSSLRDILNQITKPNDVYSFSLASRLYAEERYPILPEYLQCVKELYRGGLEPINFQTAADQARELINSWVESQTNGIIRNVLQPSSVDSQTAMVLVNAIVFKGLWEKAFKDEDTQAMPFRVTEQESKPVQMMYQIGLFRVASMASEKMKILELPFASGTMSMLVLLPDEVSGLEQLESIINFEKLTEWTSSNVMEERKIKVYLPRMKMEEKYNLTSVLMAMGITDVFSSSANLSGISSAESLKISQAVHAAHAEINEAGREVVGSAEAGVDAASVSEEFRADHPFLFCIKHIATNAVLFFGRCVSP
Protocol: as §3

Cytokine 2 (human) = Cytokine 2 (human) (human); assay: as above
Protocol: as §3

[6] = target: Cell surface receptor 2 (human) (human); assay: as above
Protocol: as §3

Antitrypsin (human) = Antitrypsin (human) (human, UniProt P01009 25-418); assay: as above
Protocol: as §3

Cytochrome c (cow) = Cytochrome c (cow) (cow, UniProt P62894 2-105); assay: as above
Protocol: as §3

[7] = target: T1, Recombinant cynomolgus monkey sgM-CSF; assay: cell-based or functional assay
[8] = target: T2, Recombinant human sgM-CSF; assay: cell-based or functional assay
GM-CSF = GM-CSF (Homo sapiens (Human), UniProt P04141 18-144); assay: not described (Table 12, criterion Binding)
Sequence of GM-CSF (P04141 18-144 limits assumed): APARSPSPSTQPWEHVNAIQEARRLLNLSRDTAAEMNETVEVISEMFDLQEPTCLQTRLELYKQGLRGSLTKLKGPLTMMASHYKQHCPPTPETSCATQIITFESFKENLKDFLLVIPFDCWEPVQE

Sequence of Antitrypsin (human) (P01009 25-418 limits assumed): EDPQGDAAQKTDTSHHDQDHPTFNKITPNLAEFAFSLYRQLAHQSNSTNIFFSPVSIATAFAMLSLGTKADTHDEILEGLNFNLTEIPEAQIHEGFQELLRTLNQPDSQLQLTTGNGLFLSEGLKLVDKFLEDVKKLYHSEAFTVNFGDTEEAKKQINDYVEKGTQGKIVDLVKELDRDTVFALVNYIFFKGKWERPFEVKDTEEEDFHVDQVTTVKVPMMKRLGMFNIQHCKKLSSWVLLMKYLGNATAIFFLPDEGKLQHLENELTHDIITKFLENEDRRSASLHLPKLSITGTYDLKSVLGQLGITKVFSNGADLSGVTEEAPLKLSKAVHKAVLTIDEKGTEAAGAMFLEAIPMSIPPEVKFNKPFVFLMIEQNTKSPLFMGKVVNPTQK
Sequence of Cytochrome c (cow) (P62894 2-105 limits assumed): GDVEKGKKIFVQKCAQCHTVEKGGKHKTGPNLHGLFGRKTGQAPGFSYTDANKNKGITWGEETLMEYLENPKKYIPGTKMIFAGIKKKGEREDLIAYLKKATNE

B1: Camille (format not stated) (antibody, V domains shown)
VH: QVQLQQSGPGLVKPSQTLSLTCAISGESVSTSSAAWNWIRQSPSRGLEWLGRTYYRSKWKHEYAVSVKSRITINPDTSKNQFSLQLNSVTPEDTAVYYCARDRYYYSAFDYWGQGTLVTVSS
VL: QSALTQPASVSGSPGQSITISCTGTSSDVGGYNSVSWYQQHPGKAPKLLIYAVSNRPSGVSNRFSGSKSGNTASLTISGLQAEDEADYYCASYDERFTRVFGGGTKLTVLG
notes: also called Antibody Camille
[1]
  IC50: 6 pM
[2]
  IC50: 4 pM
[3]
  Kd: 18 pM
Human M-CSF
  ELISA fluorescence units: > 35000 units
[4]
  ELISA fluorescence units: > 35000 units
[5]
  signal normalized to reference antibody MOR03207: 1 ratio
Ovalbumin (chicken)
  signal normalized to reference antibody MOR03207: 1 ratio
Cytokine 2 (human)
  signal normalized to reference antibody MOR03207: 2 ratio
[6]
  signal normalized to reference antibody MOR03207: 1 ratio
Antitrypsin (human)
  signal normalized to reference antibody MOR03207: 1 ratio
Cytochrome c (cow)
  signal normalized to reference antibody MOR03207: 1 ratio
[7]
  Cell viability assay (IC50), Cynomolgus M-CSF: 3 pM
[8]
  Cell viability assay (IC50), Human M-CSF: 2 pM
GM-CSF
  binding result: no binding
